Assay results published in patent US20220146528A1 (NORDIC BIOSCIENCE A S, published 2022).
No end group written: not given here.

T1: elongation of the selection peptide AGIATKGLNGP (human)
T1 construct: Synthetic peptide: the selection peptide with one alanine added at the N-terminus; also called elongated peptide; N-extended elongated version
T1 peptide: AGIATKGLNGP

T2: truncation of the selection peptide IATKGLNGP (human)
T2 construct: Synthetic peptide: the selection peptide without its N-terminal glycine; also called truncated peptide; N-truncated shortened version
T2 peptide: IATKGLNGP

T3: biotinylated synthetic peptide GIATKGLNGP-k(Biotin) (human, not fully specified (C-terminus); also: lowercase k not explained)
T3 construct: Captured on streptavidin-coated microplates; also called biotinylated peptide; coater peptide
T3 peptide: H-GIATKGLNGP

B1: selection peptide GIATKGLNGP (peptide)
peptide: H-GIATKGLNGP
B2: monoclonal antibody NB117-2F4 (antibody, mouse IgG2b, kappa, V domains shown)
VH: EVQLQESGPSLVKPSQTLSLTCSVTGDSITSGFWSWIRKFPGNKLEFMGYIKYSGDTYFNPSLKSRISITRDTSKNQYYLQLNSVTPEDTATYYCSDMDYWGQGTSVTVSS
VL: DVVMTQTPRSLPVSLGDQASISCRSSQSLVHNNGNTYLHWYLQMPGQSPKLLIYKVSNRFSGVPDRFSGSGSGTDFTLKISRVEAEDLGVYFCSQITHVPWTFGGGTKLEIKR
notes: also called mAb

Legend:
[1] = target: B2; assay: competitive ELISA (Col10neo): peptide standard competes with the coated …-k(Biotin) for 2F4
Method: A purified monoclonal antibody was first tested for peptide-binding specificity by three synthetic peptides, selection peptide ([…]; SEQ ID NO: 1), elongation of the selection peptide ([…]; SEQ ID NO: 3) and truncation of the selection peptide ([…]; SEQ ID NO: 4), and then used in a competitive immunoassay. After optimization with buffer, temperature, incubation time and concentrations for key reagents, the final protocol for detection of ⁴⁷⁹GIATKG (SEQ ID NO: 2) assay was developed as follows: a 96-well streptavidin pre-coated micro plate was coated with 1 ng/ml biotinylated peptide, […]-k(Biotin) (SEQ ID NO: 5) dissolved in 50 mM PBS-BTB buffer (phosphate-buffered saline with bovine serum albumin and Tween-20, pH7.4) for 30 min at 20° C. Then, the plate was washed 5 times by standard wash buffer (20 mM Tris, 50 mM NaCl, pH 7.2). […] The colorimetric reaction was stopped by adding 100 μL stopping solution (1% H₂SO₄) and measured at 450 nm with 650 nm as the reference.
The inter- and intra-plate variation were determined by 10 independent runs of quality control panel (three human sera and two peptide standard) in duplicate. The lower limit of detection (LLOD) was calculated as 3SD of the mean value of 21 zero standard. […] Percent recovery was calculated as the measured concentration divided by the expected concentration corrected for dilution.

[2] = target: B1; assay: competitive ELISA, displacement of 2F4 from the coated biotinylated peptide
Method: (§1) A purified monoclonal antibody was first tested for peptide-binding specificity by three synthetic peptides, selection peptide ([…]; SEQ ID NO: 1), elongation of the selection peptide ([…]; SEQ ID NO: 3) and truncation of the selection peptide ([…]; SEQ ID NO: 4), and then used in a competitive immunoassay. After optimization with buffer, temperature, incubation time and concentrations for key reagents, the final protocol for detection of ⁴⁷⁹GIATKG (SEQ ID NO: 2) assay was developed as follows: a 96-well streptavidin pre-coated micro plate was coated with 1 ng/ml biotinylated peptide, […]-k(Biotin) (SEQ ID NO: 5) dissolved in 50 mM PBS-BTB buffer (phosphate-buffered saline with bovine serum albumin and Tween-20, pH7.4) for 30 min at 20° C. Then, the plate was washed 5 times by standard wash buffer (20 mM Tris, 50 mM NaCl, pH 7.2). 20 μL of the peptide standards, kit controls or samples were added to appropriate wells, followed by 100 μL of 23 ng/ml monoclonal antibody in 50 mM PBS-BTB buffer containing 5% Osteocalcin EIA Puf-Liq (Roche diagnostics, Germany), and incubated overnight (20±1 hr) at 4° C. After 5 times wash, 100 μL of goat anti-mouse secondary antibody (115-035-003, Jackson ImmunoResearch) was added and incubated for 1 hr at 20° C. After this step, the plate was washed for 5 times with wash buffer. Finally, 100 μL 3,3′,5,5′-tetramethylbenzidine (TMB) was added to each well and incubated for 15 min at 20° C. in the dark. The colorimetric reaction was stopped by adding 100 μL stopping solution (1% H₂SO₄) and measured at 450 nm with 650 nm as the reference.

[3] = target: T1, elongation of the selection peptide …; assay: as above
Method: as §1

[4] = target: T2, truncation of the selection peptide …; assay: as above
Method: as §1

[5] = target: T3, biotinylated synthetic peptide …; assay: competitive ELISA, biotinylated peptide on streptavidin plate (FIG. 1 legend)
Method: as §1, with “After this step, the plate was washed for 5 times with wash buffer. Finally, 100 μL 3,3′,5,5′-tetramethylbenzidine (TMB) was added to each well and incubated for 15 min at 20° C. in the dark.” left out

Binder	IC50 [1]	binding result [2]	binding result [3]	binding result [4]	binding result [5]
B1	0.0419 µg/mL	–	–	–	–
B2	–	binds	no binding (tested: 1000 ng/mL)	no binding (tested: 1000 ng/mL)	binds
